Test results published in IntAct's records for PubMed 23454188.

Target: gima7_human GIMAP7 (UniProt Q8NHV1)
Sequence (Q8NHV1 whole entry): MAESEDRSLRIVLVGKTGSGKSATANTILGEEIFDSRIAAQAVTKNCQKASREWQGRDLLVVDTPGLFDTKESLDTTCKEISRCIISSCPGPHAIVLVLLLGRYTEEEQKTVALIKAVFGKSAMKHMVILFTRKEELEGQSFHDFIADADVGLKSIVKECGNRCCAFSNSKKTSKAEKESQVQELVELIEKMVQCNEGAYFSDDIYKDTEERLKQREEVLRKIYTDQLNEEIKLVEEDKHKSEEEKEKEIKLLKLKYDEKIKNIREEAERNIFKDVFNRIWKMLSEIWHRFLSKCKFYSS

Sequence of GTPase IMAP family member 2 (Homo sapiens), Q9UG22 R117D (Q9UG22 whole entry R117D): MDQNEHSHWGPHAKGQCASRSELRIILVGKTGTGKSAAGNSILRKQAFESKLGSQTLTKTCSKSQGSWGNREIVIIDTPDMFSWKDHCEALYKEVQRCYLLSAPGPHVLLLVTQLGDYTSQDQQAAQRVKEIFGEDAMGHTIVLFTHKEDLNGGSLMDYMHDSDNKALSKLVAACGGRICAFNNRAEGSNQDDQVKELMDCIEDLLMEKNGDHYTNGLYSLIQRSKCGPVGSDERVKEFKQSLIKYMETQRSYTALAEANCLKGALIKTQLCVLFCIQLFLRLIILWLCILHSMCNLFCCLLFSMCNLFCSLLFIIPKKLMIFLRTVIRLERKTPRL
Sequence of GTPase IMAP family member 2 (Homo sapiens), Q9UG22 S54A (Q9UG22 whole entry S54A): as the sequence (Q9UG22 whole entry R117D) above, with S54A, D117R counted along it

| effect of a mutation on the interaction | Substance |
| --- | --- |
| disrupting interaction strength | GTPase IMAP family member 2 (Homo sapiens), Q9UG22 R117D |
| disrupting interaction strength | GTPase IMAP family member 2 (Homo sapiens), Q9UG22 S54A |
